{"source": "paper PMC4546403", "data": [{"assay": "immunofluorescence, Hh-induced plasma membrane vs ER marker, Cl8", "conditions": "glycan lost; control: wild type dSmo", "values": [{"protein": "Drosophila Smo (dSmo): N95Q (protein) parent chain: MQYLNFPRMPNIMMFLEVAILCLWVVADASASSAKFGSTTPASAQQSDVELEPINGTLNYRLYAKKGRDDKPWFDGLDSRHIQCVRRARCYPTSNATNTCFGSKLPYELSSLDLTDFHTEKELNDKLNDYYALKHVPKCWAAIQPFLCAVFKPKCEKINGEDMVYLPSYEMCRITMEPCRILYNTTFFPKFLRCNETLFPTKCTNGARGMKFNGTGQCLSPLVPTDTSASYYPGIEGCGVRCKDPLYTDDEHRQIHKLIGWAGSICLLSNLFVVSTFFIDWKNANKYPAVIVFYINLCFLIACVGWLLQFTSGSREDIVCRKDGTLRHSEPTAGENLSCIVIFVLVYYFLTAGMVWFVFLTYAWHWRAMGHVQDRIDKKGSYFHLVAWSLPLVLTITTMAFSEVDGNSIVGICFVGYINHSMRAGLLLGPLCGVILIGGYFITRGMVMLFGLKHFANDIKSTSASNKIHLIIMRMGVCALLTLVFILVAIACHVTEFRHADEWAQSFRQFIICKISSVFEEKSSCRIENRPSVGVLQLHLLCLFSSGIVMSTWCWTPSSIETWKRYIRKKCGKEVVEEVKMPKHKVIAQTWAKRKDFEDKGRLSITLYNTHTDPVGLNFDVNDLNSSETNDISSTWAAYLPQCVKRRMALTGAATGNSSSHGPRKNSLDSEISVSVRHVSVESRRNSVDSQVSVKIAEMKTKVASRSRGKHGGSSSNRRTQRRRDYIAAATGKSSRRRESSTSVESQVIALKKTTYPNASHKVGVFAHHSSKKQHNYTSSMKRRTANAGLDPSILNEFLQKNGDFIFPFLQNQDMSSSSEEDNSRASQKIQDLNVVVKQQEISEDDHDGIKIEELPNSKQVALENFLKNIKKSNESNSNRHSRNSARSQSKKSQKRHLKNPAADLDFRKDCVKYRSNDSLSCSSEELDVALDVGSLLNSSFSGISMGKPHSRNSKTSCDVGIQANPFELVPSYGEDELQQAMRLLNAASRQRTEAANEDFGGTELQGLLGHSHRHQREPTFMSESDKLKMLLLPSK", "localisation_or_trafficking": "no change"}, {"protein": "Drosophila Smo (dSmo): N184Q (protein) parent chain: MQYLNFPRMPNIMMFLEVAILCLWVVADASASSAKFGSTTPASAQQSDVELEPINGTLNYRLYAKKGRDDKPWFDGLDSRHIQCVRRARCYPTSNATNTCFGSKLPYELSSLDLTDFHTEKELNDKLNDYYALKHVPKCWAAIQPFLCAVFKPKCEKINGEDMVYLPSYEMCRITMEPCRILYNTTFFPKFLRCNETLFPTKCTNGARGMKFNGTGQCLSPLVPTDTSASYYPGIEGCGVRCKDPLYTDDEHRQIHKLIGWAGSICLLSNLFVVSTFFIDWKNANKYPAVIVFYINLCFLIACVGWLLQFTSGSREDIVCRKDGTLRHSEPTAGENLSCIVIFVLVYYFLTAGMVWFVFLTYAWHWRAMGHVQDRIDKKGSYFHLVAWSLPLVLTITTMAFSEVDGNSIVGICFVGYINHSMRAGLLLGPLCGVILIGGYFITRGMVMLFGLKHFANDIKSTSASNKIHLIIMRMGVCALLTLVFILVAIACHVTEFRHADEWAQSFRQFIICKISSVFEEKSSCRIENRPSVGVLQLHLLCLFSSGIVMSTWCWTPSSIETWKRYIRKKCGKEVVEEVKMPKHKVIAQTWAKRKDFEDKGRLSITLYNTHTDPVGLNFDVNDLNSSETNDISSTWAAYLPQCVKRRMALTGAATGNSSSHGPRKNSLDSEISVSVRHVSVESRRNSVDSQVSVKIAEMKTKVASRSRGKHGGSSSNRRTQRRRDYIAAATGKSSRRRESSTSVESQVIALKKTTYPNASHKVGVFAHHSSKKQHNYTSSMKRRTANAGLDPSILNEFLQKNGDFIFPFLQNQDMSSSSEEDNSRASQKIQDLNVVVKQQEISEDDHDGIKIEELPNSKQVALENFLKNIKKSNESNSNRHSRNSARSQSKKSQKRHLKNPAADLDFRKDCVKYRSNDSLSCSSEELDVALDVGSLLNSSFSGISMGKPHSRNSKTSCDVGIQANPFELVPSYGEDELQQAMRLLNAASRQRTEAANEDFGGTELQGLLGHSHRHQREPTFMSESDKLKMLLLPSK", "localisation_or_trafficking": "no change"}, {"protein": "Drosophila Smo (dSmo): N195Q (protein) parent chain: MQYLNFPRMPNIMMFLEVAILCLWVVADASASSAKFGSTTPASAQQSDVELEPINGTLNYRLYAKKGRDDKPWFDGLDSRHIQCVRRARCYPTSNATNTCFGSKLPYELSSLDLTDFHTEKELNDKLNDYYALKHVPKCWAAIQPFLCAVFKPKCEKINGEDMVYLPSYEMCRITMEPCRILYNTTFFPKFLRCNETLFPTKCTNGARGMKFNGTGQCLSPLVPTDTSASYYPGIEGCGVRCKDPLYTDDEHRQIHKLIGWAGSICLLSNLFVVSTFFIDWKNANKYPAVIVFYINLCFLIACVGWLLQFTSGSREDIVCRKDGTLRHSEPTAGENLSCIVIFVLVYYFLTAGMVWFVFLTYAWHWRAMGHVQDRIDKKGSYFHLVAWSLPLVLTITTMAFSEVDGNSIVGICFVGYINHSMRAGLLLGPLCGVILIGGYFITRGMVMLFGLKHFANDIKSTSASNKIHLIIMRMGVCALLTLVFILVAIACHVTEFRHADEWAQSFRQFIICKISSVFEEKSSCRIENRPSVGVLQLHLLCLFSSGIVMSTWCWTPSSIETWKRYIRKKCGKEVVEEVKMPKHKVIAQTWAKRKDFEDKGRLSITLYNTHTDPVGLNFDVNDLNSSETNDISSTWAAYLPQCVKRRMALTGAATGNSSSHGPRKNSLDSEISVSVRHVSVESRRNSVDSQVSVKIAEMKTKVASRSRGKHGGSSSNRRTQRRRDYIAAATGKSSRRRESSTSVESQVIALKKTTYPNASHKVGVFAHHSSKKQHNYTSSMKRRTANAGLDPSILNEFLQKNGDFIFPFLQNQDMSSSSEEDNSRASQKIQDLNVVVKQQEISEDDHDGIKIEELPNSKQVALENFLKNIKKSNESNSNRHSRNSARSQSKKSQKRHLKNPAADLDFRKDCVKYRSNDSLSCSSEELDVALDVGSLLNSSFSGISMGKPHSRNSKTSCDVGIQANPFELVPSYGEDELQQAMRLLNAASRQRTEAANEDFGGTELQGLLGHSHRHQREPTFMSESDKLKMLLLPSK", "localisation_or_trafficking": "no change"}, {"protein": "Drosophila Smo (dSmo): N95Q,N336Q (protein) parent chain: MQYLNFPRMPNIMMFLEVAILCLWVVADASASSAKFGSTTPASAQQSDVELEPINGTLNYRLYAKKGRDDKPWFDGLDSRHIQCVRRARCYPTSNATNTCFGSKLPYELSSLDLTDFHTEKELNDKLNDYYALKHVPKCWAAIQPFLCAVFKPKCEKINGEDMVYLPSYEMCRITMEPCRILYNTTFFPKFLRCNETLFPTKCTNGARGMKFNGTGQCLSPLVPTDTSASYYPGIEGCGVRCKDPLYTDDEHRQIHKLIGWAGSICLLSNLFVVSTFFIDWKNANKYPAVIVFYINLCFLIACVGWLLQFTSGSREDIVCRKDGTLRHSEPTAGENLSCIVIFVLVYYFLTAGMVWFVFLTYAWHWRAMGHVQDRIDKKGSYFHLVAWSLPLVLTITTMAFSEVDGNSIVGICFVGYINHSMRAGLLLGPLCGVILIGGYFITRGMVMLFGLKHFANDIKSTSASNKIHLIIMRMGVCALLTLVFILVAIACHVTEFRHADEWAQSFRQFIICKISSVFEEKSSCRIENRPSVGVLQLHLLCLFSSGIVMSTWCWTPSSIETWKRYIRKKCGKEVVEEVKMPKHKVIAQTWAKRKDFEDKGRLSITLYNTHTDPVGLNFDVNDLNSSETNDISSTWAAYLPQCVKRRMALTGAATGNSSSHGPRKNSLDSEISVSVRHVSVESRRNSVDSQVSVKIAEMKTKVASRSRGKHGGSSSNRRTQRRRDYIAAATGKSSRRRESSTSVESQVIALKKTTYPNASHKVGVFAHHSSKKQHNYTSSMKRRTANAGLDPSILNEFLQKNGDFIFPFLQNQDMSSSSEEDNSRASQKIQDLNVVVKQQEISEDDHDGIKIEELPNSKQVALENFLKNIKKSNESNSNRHSRNSARSQSKKSQKRHLKNPAADLDFRKDCVKYRSNDSLSCSSEELDVALDVGSLLNSSFSGISMGKPHSRNSKTSCDVGIQANPFELVPSYGEDELQQAMRLLNAASRQRTEAANEDFGGTELQGLLGHSHRHQREPTFMSESDKLKMLLLPSK", "localisation_or_trafficking": "decreases"}, {"protein": "Drosophila Smo (dSmo): N184Q,N336Q (protein) parent chain: MQYLNFPRMPNIMMFLEVAILCLWVVADASASSAKFGSTTPASAQQSDVELEPINGTLNYRLYAKKGRDDKPWFDGLDSRHIQCVRRARCYPTSNATNTCFGSKLPYELSSLDLTDFHTEKELNDKLNDYYALKHVPKCWAAIQPFLCAVFKPKCEKINGEDMVYLPSYEMCRITMEPCRILYNTTFFPKFLRCNETLFPTKCTNGARGMKFNGTGQCLSPLVPTDTSASYYPGIEGCGVRCKDPLYTDDEHRQIHKLIGWAGSICLLSNLFVVSTFFIDWKNANKYPAVIVFYINLCFLIACVGWLLQFTSGSREDIVCRKDGTLRHSEPTAGENLSCIVIFVLVYYFLTAGMVWFVFLTYAWHWRAMGHVQDRIDKKGSYFHLVAWSLPLVLTITTMAFSEVDGNSIVGICFVGYINHSMRAGLLLGPLCGVILIGGYFITRGMVMLFGLKHFANDIKSTSASNKIHLIIMRMGVCALLTLVFILVAIACHVTEFRHADEWAQSFRQFIICKISSVFEEKSSCRIENRPSVGVLQLHLLCLFSSGIVMSTWCWTPSSIETWKRYIRKKCGKEVVEEVKMPKHKVIAQTWAKRKDFEDKGRLSITLYNTHTDPVGLNFDVNDLNSSETNDISSTWAAYLPQCVKRRMALTGAATGNSSSHGPRKNSLDSEISVSVRHVSVESRRNSVDSQVSVKIAEMKTKVASRSRGKHGGSSSNRRTQRRRDYIAAATGKSSRRRESSTSVESQVIALKKTTYPNASHKVGVFAHHSSKKQHNYTSSMKRRTANAGLDPSILNEFLQKNGDFIFPFLQNQDMSSSSEEDNSRASQKIQDLNVVVKQQEISEDDHDGIKIEELPNSKQVALENFLKNIKKSNESNSNRHSRNSARSQSKKSQKRHLKNPAADLDFRKDCVKYRSNDSLSCSSEELDVALDVGSLLNSSFSGISMGKPHSRNSKTSCDVGIQANPFELVPSYGEDELQQAMRLLNAASRQRTEAANEDFGGTELQGLLGHSHRHQREPTFMSESDKLKMLLLPSK", "localisation_or_trafficking": "decreases"}, {"protein": "Drosophila Smo (dSmo): N195Q,N336Q (protein) parent chain: MQYLNFPRMPNIMMFLEVAILCLWVVADASASSAKFGSTTPASAQQSDVELEPINGTLNYRLYAKKGRDDKPWFDGLDSRHIQCVRRARCYPTSNATNTCFGSKLPYELSSLDLTDFHTEKELNDKLNDYYALKHVPKCWAAIQPFLCAVFKPKCEKINGEDMVYLPSYEMCRITMEPCRILYNTTFFPKFLRCNETLFPTKCTNGARGMKFNGTGQCLSPLVPTDTSASYYPGIEGCGVRCKDPLYTDDEHRQIHKLIGWAGSICLLSNLFVVSTFFIDWKNANKYPAVIVFYINLCFLIACVGWLLQFTSGSREDIVCRKDGTLRHSEPTAGENLSCIVIFVLVYYFLTAGMVWFVFLTYAWHWRAMGHVQDRIDKKGSYFHLVAWSLPLVLTITTMAFSEVDGNSIVGICFVGYINHSMRAGLLLGPLCGVILIGGYFITRGMVMLFGLKHFANDIKSTSASNKIHLIIMRMGVCALLTLVFILVAIACHVTEFRHADEWAQSFRQFIICKISSVFEEKSSCRIENRPSVGVLQLHLLCLFSSGIVMSTWCWTPSSIETWKRYIRKKCGKEVVEEVKMPKHKVIAQTWAKRKDFEDKGRLSITLYNTHTDPVGLNFDVNDLNSSETNDISSTWAAYLPQCVKRRMALTGAATGNSSSHGPRKNSLDSEISVSVRHVSVESRRNSVDSQVSVKIAEMKTKVASRSRGKHGGSSSNRRTQRRRDYIAAATGKSSRRRESSTSVESQVIALKKTTYPNASHKVGVFAHHSSKKQHNYTSSMKRRTANAGLDPSILNEFLQKNGDFIFPFLQNQDMSSSSEEDNSRASQKIQDLNVVVKQQEISEDDHDGIKIEELPNSKQVALENFLKNIKKSNESNSNRHSRNSARSQSKKSQKRHLKNPAADLDFRKDCVKYRSNDSLSCSSEELDVALDVGSLLNSSFSGISMGKPHSRNSKTSCDVGIQANPFELVPSYGEDELQQAMRLLNAASRQRTEAANEDFGGTELQGLLGHSHRHQREPTFMSESDKLKMLLLPSK", "localisation_or_trafficking": "decreases"}]}]}
